The supplement of paper PMC10567573

B1: ANKRD40 (parent)
chain: YQELLRVCCCELGVNPDQVEKIRK
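Note: lentivirally expressed fusions sorted by FACS into six bins by GFP to DsRed ratio, PSI derived from sequencing read proportions per bin multiplied by bin number.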

Variants of: B1
Experiment: protein stability index of a GFP-peptide fusion (GPS, HEK-293T) (PSI 1-6); higher = more stable
Conditions: c terminus: a fixed tail appended
Variant YQELLRVCCCELGVNPDVVEKIRK [Q18V] has a protein stability index of 1.8.
YQELLRVCCCELGVNPDSVEKIRK [Q18S] gave a protein stability index of 2.08.
For YQELLRVCCCELGVNPDEVEKIRK [Q18E], the protein stability index was 2.13.
YQELLRVCCCELGVNPDAVEKIRK [Q18A] showed a protein stability index of 1.32.
Variant YQELLRVCCCELGVNPDPVEKIRK [Q18P] has a protein stability index of 1.4.
Work on YQELLRVCCCELGVNPDNVEKIRK [Q18N] yielded a protein stability index of 2.32.
YQELLRVCCCELGVNPDTVEKIRK [Q18T] showed a protein stability index of 2.16.
In the case of YQELLRVCCCELGVNPDYVEKIRK [Q18Y], the protein stability index is reported as 1.19.
Variant YQELLRVCCCELGVNPDCVEKIRK [Q18C] has a protein stability index of 1.52.
For YQELLRVCCCELGVNPDFVEKIRK [Q18F], the protein stability index was 1.01.
In the case of YQELLRVCCCELGVNPDGVEKIRK [Q18G], the protein stability index is reported as 2.02.
Work on YQELLRVCCCELGVNPDIVEKIRK [Q18I] yielded a protein stability index of 1.89.
For YQELLRVCCCELGVNPDLVEKIRK [Q18L], the protein stability index was 1.67.
YQELLRVCCCELGVNPDMVEKIRK [Q18M] gave a protein stability index of 2.02.
Work on YQELLRVCCCELGVNPDHVEKIRK [Q18H] yielded a protein stability index of 1.48.
In the case of YQELLRVCCCELGVNPDDVEKIRK [Q18D], the protein stability index is reported as 2.73.
Work on YQELLRVSCCELGVNPDQVEKIRK [C8S] yielded a protein stability index of 3.33.
For YQELLRVRCCELGVNPDQVEKIRK [C8R], the protein stability index was 2.21.
For YQELLRVQCCELGVNPDQVEKIRK [C8Q], the protein stability index was 3.52.
For YQELLRVTCCELGVNPDQVEKIRK [C8T], the protein stability index was 3.53.
For YQELLRVYCCELGVNPDQVEKIRK [C8Y], the protein stability index was 2.09.
YQELLRVWCCELGVNPDQVEKIRK [C8W] showed a protein stability index of 2.02.
YQELLRVCKCELGVNPDQVEKIRK [C9K] showed a protein stability index of 2.23.
For YQELLRVCICELGVNPDQVEKIRK [C9I], the protein stability index was 1.06.
With YQELLRVCFCELGVNPDQVEKIRK [C9F] the protein stability index was 3.38.
Variant YQELLRVCWCELGVNPDQVEKIRK [C9W] has a protein stability index of 2.23.
Work on YQELLRVCDCELGVNPDQVEKIRK [C9D] yielded a protein stability index of 3.15.
Variant YQELLRVCLCELGVNPDQVEKIRK [C9L] has a protein stability index of 1.55.
With YQELLRVCACELGVNPDQVEKIRK [C9A] the protein stability index was 2.61.
For YQELLRVCPCELGVNPDQVEKIRK [C9P], the protein stability index was 2.59.
With YQELLRVCYCELGVNPDQVEKIRK [C9Y] the protein stability index was 2.66.
Variant YQELLRVCSCELGVNPDQVEKIRK [C9S] has a protein stability index of 2.14.
Work on YQELLRVCMCELGVNPDQVEKIRK [C9M] yielded a protein stability index of 1.81.
Work on YQELLRVCQCELGVNPDQVEKIRK [C9Q] yielded a protein stability index of 2.27.
Variant YQELLRVCVCELGVNPDQVEKIRK [C9V] has a protein stability index of 1.82.
In the case of YQELLRVCHCELGVNPDQVEKIRK [C9H], the protein stability index is reported as 2.15.
Variant YQELLRVCTCELGVNPDQVEKIRK [C9T] has a protein stability index of 2.23.
For YQELLRVCRCELGVNPDQVEKIRK [C9R], the protein stability index was 2.31.
YQELLRVCNCELGVNPDQVEKIRK [C9N] showed a protein stability index of 2.15.
Work on YQELLRVCGCELGVNPDQVEKIRK [C9G] yielded a protein stability index of 3.22.
YQELLRVCECELGVNPDQVEKIRK [C9E] showed a protein stability index of 2.35.
YQELLRVCCFELGVNPDQVEKIRK [C10F] showed a protein stability index of 1.68.
In the case of YQELLRVCCVELGVNPDQVEKIRK [C10V], the protein stability index is reported as 2.1.
In the case of YQELLRVCCGELGVNPDQVEKIRK [C10G], the protein stability index is reported as 2.22.
In the case of YQELLRVCCWELGVNPDQVEKIRK [C10W], the protein stability index is reported as 1.81.
With YQELLRVCCRELGVNPDQVEKIRK [C10R] the protein stability index was 2.35.
Work on YQELLRVCCMELGVNPDQVEKIRK [C10M] yielded a protein stability index of 2.08.
For YQELLRVCCQELGVNPDQVEKIRK [C10Q], the protein stability index was 2.92.
With YQELLRVCCPELGVNPDQVEKIRK [C10P] the protein stability index was 2.31.
YQELLRVCCIELGVNPDQVEKIRK [C10I] showed a protein stability index of 1.63.
In the case of YQELLRVCCLELGVNPDQVEKIRK [C10L], the protein stability index is reported as 1.86.
With YQELLRVCCSELGVNPDQVEKIRK [C10S] the protein stability index was 2.24.
YQELLRVCCTELGVNPDQVEKIRK [C10T] showed a protein stability index of 2.04.
In the case of YQELLRVCCHELGVNPDQVEKIRK [C10H], the protein stability index is reported as 2.63.
YQELLRVCCCELGVKPDQVEKIRK [N15K] gave a protein stability index of 2.08.
Work on YQELLRVCCCELGVDPDQVEKIRK [N15D] yielded a protein stability index of 2.08.
Work on YQELLRVCCCELGVCPDQVEKIRK [N15C] yielded a protein stability index of 1.63.
In the case of YQELLRVCCCELGVIPDQVEKIRK [N15I], the protein stability index is reported as 1.37.
In the case of YQELLRVCCCELGVYPDQVEKIRK [N15Y], the protein stability index is reported as 1.78.
For YQELLRVCCCELGVMPDQVEKIRK [N15M], the protein stability index was 2.21.
YQELLRVCCCELGVAPDQVEKIRK [N15A] gave a protein stability index of 1.96.
Work on YQELLRVCCCELGVFPDQVEKIRK [N15F] yielded a protein stability index of 1.45.
For YQELLRVCCCELGVPPDQVEKIRK [N15P], the protein stability index was 2.8.
Work on YQELLRVCCCELGVQPDQVEKIRK [N15Q] yielded a protein stability index of 1.62.
YQELLRVCCCELGVHPDQVEKIRK [N15H] gave a protein stability index of 2.75.
With YQELLRVCCCELGVRPDQVEKIRK [N15R] the protein stability index was 2.21.
For YQELLRVCCCELGVTPDQVEKIRK [N15T], the protein stability index was 3.74.
YQELLRVCCCELGVGPDQVEKIRK [N15G] showed a protein stability index of 1.26.
Variant YQELLRVCCCELGVEPDQVEKIRK [N15E] has a protein stability index of 2.27.
With YQELLRVCCCELGVLPDQVEKIRK [N15L] the protein stability index was 1.39.
For YQELLRVCCCELGVSPDQVEKIRK [N15S], the protein stability index was 2.1.
Work on YQELLRVCCCELGVNIDQVEKIRK [P16I] yielded a protein stability index of 1.52.
YQELLRVCCCELGVNSDQVEKIRK [P16S] showed a protein stability index of 2.06.
In the case of YQELLRVCCCELGVNLDQVEKIRK [P16L], the protein stability index is reported as 2.11.
Variant YQELLRVCCCELGVNHDQVEKIRK [P16H] has a protein stability index of 1.43.
In the case of YQELLRVCCCELGVNCDQVEKIRK [P16C], the protein stability index is reported as 2.52.
In the case of YQELLRVCCCELGVNRDQVEKIRK [P16R], the protein stability index is reported as 2.41.
YQELLRVCCCELGVNYDQVEKIRK [P16Y] showed a protein stability index of 1.99.
YQELLRVCCCELGVNFDQVEKIRK [P16F] gave a protein stability index of 1.14.
Variant YQELLRVCCCELGVNKDQVEKIRK [P16K] has a protein stability index of 2.26.
With YQELLRVCCCELGVNQDQVEKIRK [P16Q] the protein stability index was 2.5.
For YQELLRVCCCELGVNTDQVEKIRK [P16T], the protein stability index was 1.29.
With YQELLRVCCCELGVNNDQVEKIRK [P16N] the protein stability index was 2.4.
YQELLRVCCCELGVNMDQVEKIRK [P16M] showed a protein stability index of 1.5.
Variant YQELLRVCCCELGVNADQVEKIRK [P16A] has a protein stability index of 1.81.
For YQELLRVCCCELGVNEDQVEKIRK [P16E], the protein stability index was 2.14.
YQELLRVCCCELGVNDDQVEKIRK [P16D] showed a protein stability index of 2.86.
In the case of YQELLRVCCCELGCNPDQVEKIRK [V14C], the protein stability index is reported as 2.08.
Variant YQELLRVCCCELGLNPDQVEKIRK [V14L] has a protein stability index of 2.18.
YQELLRVCCCELGHNPDQVEKIRK [V14H] gave a protein stability index of 2.22.
Variant YQELLRVCCCELGMNPDQVEKIRK [V14M] has a protein stability index of 2.07.
In the case of YQELLRVCCCELGPNPDQVEKIRK [V14P], the protein stability index is reported as 2.02.
In the case of YQELLRVCCCELGINPDQVEKIRK [V14I], the protein stability index is reported as 1.61.
YQELLRVCCCELGQNPDQVEKIRK [V14Q] showed a protein stability index of 1.72.
